Among the data in publication PMC6265327 are percent of isolated (not train-incorporated) CMG particles bound by Pol epsilon values, retold here.

For the assay, the target named is CMG assembled in vitro on roadblocked linear DNA from loaded MCM double hexamers and purified firing factors (yeast (strains based on W303)) (UniProt Q08032). Briefly: negative-stain EM with 2D classification; origin activation reconstituted with purified yeast proteins on bead-tethered linear DNA capped by covalent protein roadblocks; eluted by DNA digestion at a single site; particles counted in 2D class averages.

With “Pol epsilon used in the reconstituted origin activation (MCM train) reactions, P21951 1-2222; P24482 1-689; P27344 1-201; Q04603 1-196”, the percent of isolated (not train-incorporated) CMG particles bound by Pol epsilon came to 2%.
